The source of these data is the supplement of paper PMC9170038.

The test system of this series is MS2 coat protein. Description: apparent KD of MS2 coat protein; designed switch direction (-1 OFF switch, 1 ON switch): 1; higher = weaker reporter binding. The method, boiled down: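 Designed RNA switches with common flanks were transcribed on Illumina chips by stalled E. coli RNA polymerase and titrated with SNAP-549-labelled MS2 coat protein, from 0.7 or 1.5 nM doubling to 3 µM, in Tris-HCl pH 7.5 buffer with KCl, MgCl2, BSA, DTT, tRNA and Tween-20. Steps lasted 0.8–1.5 h (lowest) to 10–20 min (highest). Titrations ran without input, with 200 uM small-molecule ligand, or with an oligonucleotide input. Normalised cluster fluorescence was curve-fitted, and apparent KD is the per-design median over clusters.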

Setting [1] is: input ligand: microRNA oligo, concentration not stated.
[2] abbreviates: Eterna round: R95, input ligand: FMN 200 uM.
The mark [3] stands for this setting: Eterna round: R95, input ligand: microRNA oligo, concentration not stated.
The mark [4] stands for this setting: Eterna round: R95, input ligand: none.

With “GCUAGAAUUAAAGCCAACAUGAGGAUCACCCAUGUAUGUUGGCAGGAUAUCGUUUGCUUUGCAAACGAGAAGGGCUAAACUAGC [JL SSNG3 1.02] (Eterna round: R96, puzzle: Same State NG 3)”, the “apparent KD of MS2 coat protein” value (input ligand: FMN 200 uM) amounted to 114 nM, the “apparent KD of MS2 coat protein” value under setting [1] came to 121 nM and the “apparent KD of MS2 coat protein” value (input ligand: none) turned out to be 182 nM.
The matching figures for “GCUAGAAUUAAAGCCAACAUGAGGAUCACCCAUGUAUGUUGGUAGGAUAUCGUUUGCUUUGCAAACGAGAAGGGCUAAACUAGC [JL SSNG3 1.06] (Eterna round: R96, puzzle: Same State NG 3)”: 78.3 nM, 58.5 nM and 73.1 nM.
In the case of “GCUCGAAUCACAGCCAACAUGAGGAUCACCCAUGUAUGUUGGUAGGAUAUCGUUUCUAAGGGAAACGAGAAGGGCCGAACGAGC [SameState NG3 #10] (Eterna round: R96, puzzle: Same State NG 3)”, the “apparent KD of MS2 coat protein” value reads like this: (input ligand: FMN 200 uM) 171 nM; under setting [1], 151 nM; (input ligand: none) 163 nM.
The matching figures for “GCUCGACGUAUGGCCUACAUGAGGAUCACCCAUGUGACUGGGCAGGAUAUCUAGAUGCAGAAUGUAGAGAAGGGCCCGUCGAGC [SameState NG3 #48] (Eterna round: R96, puzzle: Same State NG 3)”: 244 nM, 74 nM and 194 nM.
The matching figures for “GCUCGAUGAGCGGUUUACAUGAGGAUCACCCAUGUACAUGGGCAGGAUAUUUACGUGCUUUGUGUAGAGAAGGGCCCAUCGAGC [SameState NG3 #74] (Eterna round: R96, puzzle: Same State NG 3)”: 92.4 nM, 280 nM and 244 nM.
The matching figures for “GCUGGAAAUCACAUGAGGAUCACCCAUGUUCCGGAAACGGCACAGGAUAUCUGUCCGAAAAGGUCAGAGAAGGGUGAAACCAGC [Fiskers NG3ss - 85] (Eterna round: R96, puzzle: Same State NG 3)”: 303 nM, 56.1 nM and 105 nM.
In the case of “GCUUCGGCGGUAGGAUAUCUAGGAUAUGGGAAGAGCUAAGCUUGGAAGUCACUUCACCCAGAAGGAGAGAAGGACACCUUCGGG [pwkr ssNG2 2FMN + F9.4] (Eterna round: R96, puzzle: Same State NG 2)”, the “apparent KD of MS2 coat protein” value came out at 230 nM (input ligand: FMN 200 uM), 3.87 nM under setting [1] and 47 nM (input ligand: none).
For “GGACGUCAACUCACUAAUUAACAUGAGGAUCACCCAUGUUCACAGGAUAUGAGUCCGAUUAGGACUCAGAAGGGUGAGACGUCC [Fiskers NG3ss - 48] (Eterna round: R96, puzzle: Same State NG 3)”, in that order: 20.3 nM, 19.7 nM and 21.1 nM.
The matching figures for “GGACGUCAAUCUCCUACUUAAACAUGAGGAUCACCCAUGUCACAGGAUAUGAGUCCGAUUAGGACUCAGAAGGGUGAGACGUCC [Fiskers NG3ss - 50] (Eterna round: R96, puzzle: Same State NG 3)”: 18.8 nM, 15.2 nM and 16 nM.
On to “GGAGAGAGAGCACAGGAUAUUUAAGGAGAGACAUGAGGAUCACCCAUGUGAGAGAGAGAGGAGAGAGAGAAGGGUGAGAGAGAGG [Altered State 2-17 - Jieux - Same State 2] (puzzle: Same State 2)”, for which the “apparent KD of MS2 coat protein” value runs as follows: under setting [2], 109 nM; under setting [3], 79.1 nM; under setting [4], 83.9 nM.
Turning to “GGAGCCAAGGCAGGAUAUUCAACAUGAGGAUCACCCAUGUGGGUAAUAAAGGCCAGAAGGCCUUGGGAGAAGGGCCAUGGCUCG [Xeonanis - 13 mod13] (Eterna round: R96, puzzle: Same State NG 2)”, the “apparent KD of MS2 coat protein” value (input ligand: FMN 200 uM) is 16.8 nM, the “apparent KD of MS2 coat protein” value under setting [1] is 9.17 nM and the “apparent KD of MS2 coat protein” value (input ligand: none) amounted to 17.7 nM.
For “GGAGCCAAGGCAGGAUAUUCAUAUAAAUUAACAUGAGGAUCACCCAUGUAGGCCAGAAGGCCUUGGGAGAAGGGCCAUGGCUCG [Xeonanis - 13 mod8] (Eterna round: R96, puzzle: Same State NG 2)”, in that order: 21.6 nM, 143 nM and 157 nM.
The matching figures for “GGAGCCGGCACCGAGGAUAUUCAUAUUAAAACAUGAGGAUCACCCAUGUACCGCAGAAGCGGUUGGGAGAAGGCGGAUCGGCUCG [Xeonanis - 23] (Eterna round: R96, puzzle: Same State 2)”: 31.3 nM, 311 nM and 534 nM.
On to “GGAGCCGGCACCGAGGAUAUUCAUAUUAAAACAUGAGGAUCACCCAUGUACCGCAGAAGCGGUUGGGAGAAGGCGGAUCGGCUCG [Xeonanis - 23] (puzzle: Same State 2)”, for which the “apparent KD of MS2 coat protein” value by setting is: under setting [2], 33 nM; under setting [3], 271 nM; under setting [4], 730 nM.
The matching figures for “GGAGCCGGCACCGAGGAUAUUCAUAUUAAAACAUGAGGAUCACCCAUGUAGAGGAGAACCUCUUGGGAGAAGGCGGAUCGGCUCG [Xeonanis - 26] (puzzle: Same State 2)”: 289 nM, 723 nM and 1090 nM.
With “GGAGCCGGCCUAGGAUAUUUCAUAAUAAUACAUGAGGAUCACCCAUGUAGGCCAGAAGGCCUUGGGAAGAAGGAGGUCGGCUCC [Loop Effect - U26,U29] (Eterna round: R96, puzzle: Same State NG 2)”, the “apparent KD of MS2 coat protein” value was 14.1 nM (input ligand: FMN 200 uM), 26 nM under setting [1] and 43.2 nM (input ligand: none).
The matching figures for “GGAGCCGGCCUAGGAUAUUUCAUAUAUUAACAUGAGGAUCACCCAUGUAGGCCAGAAGGCCUUGGGAAGAAGGAGGUCGGCUCC [Loop Effect - U25,U27,U28] (Eterna round: R96, puzzle: Same State NG 2)”: 15.7 nM, 49.8 nM and 79.6 nM.
The matching figures for “GGAGCUGUUAUAGGAUAUCCCGCGCAUUACGCGGGAGAAGGGUGACGCUCACAUGAGGAUCACCCAUGUGGCGUUCCAAAAUAA [Rate] (Eterna round: R96, puzzle: Same State NG 1)”: 11.8 nM, 8.12 nM and 12.4 nM.
With “GGAGGACAUGAGGAUCACCCAUGUGGAUGAUCGCUAGGAUAUGCGUGCAGGAAGAGUGGUGCAGAAGGAGUGGGAU [JR_SS1_Sub048] (puzzle: Same State 1)”, the “apparent KD of MS2 coat protein” value under setting [3] came out at 348 nM.
Regarding “GGAUGAUAGACAGGAUAUUGAUUGUAAUUAGGUCAAGAAGGGUCAAUGAUUUAAACGACCAGUUACAUGAGGAUCACCCAUGUU [JR_SSNG1_Sub027] (Eterna round: R96, puzzle: Same State NG 1)”, the “apparent KD of MS2 coat protein” value was 160 nM (input ligand: FMN 200 uM), 208 nM under setting [1] and 315 nM (input ligand: none).
